The source of these data is patent US7026443.

Read-outs that look alike come from different tables or passages of the source.

The target in assay [1] is HLA-A*0301 (human). As to the kind of experiment: competition with 125I-labelled standard peptide for purified HLA-A*0301, gel filtration. The following applies: for relative binding ratio (A*0301): scale: ratio. (In gel filtration, larger molecules generally elute earlier.)
In assay [2] the target is HLA-A*0301 (human). The experiment in a line: competition with 125I-labelled standard peptide for purified HLA, gel filtration.
In assay [3] the target is HLA-A*1101 (human). The assay is described as above.
In assay [4] the target is HLA-A*0201 (human).
Setting [5] is: remark: other sources report otherwise.

Turning to LCPEEKQRH (modifications not checked) [… (HPV16 E6, position 117)], in assay [1], the relative binding ratio (IC50 of standard peptide / IC50 of test peptide) (ratio to standard peptide) came to 0.0003.

Consider WTGRCMSCCR (modifications not checked), for which the figures for the binding affinity ratio (IC50 of standard peptide / IC50 of test peptide) in assay [2] and in assay [3] were 0.0003 and 0.0008, respectively.

In the case of KLRAGQNHR (modifications not checked) [HPV18 E1 peptide … (position 647, 9 amino acids)], in assay [1], the relative binding ratio (A*0301) turned out to be 0.3. Consider LTTNIHPAK (modifications not checked) [… (HPV18 E1, position 571, 9 amino acids)], for which the binding affinity ratio (IC50 of standard peptide / IC50 of test peptide) in assay [1] came to 0.091. Turning to DSIPHAACH (modifications not checked) [HPV18 E6 peptide … (position 58, 9 amino acids)], the relative binding ratio (IC50 of standard peptide / IC50 of test peptide) (ratio to standard peptide) in assay [1] came to 0.0005. As to SLFGMSLMK (modifications not checked) [HPV16 E1 484 …], in assay [1], the binding affinity ratio (IC50 of standard peptide / IC50 of test peptide) came out at 0.72. On to PLCPEEKQR (modifications not checked), for which the binding affinity ratio (IC50 of standard peptide / IC50 of test peptide) in assay [2] is 0.0002; in assay [3] it was 0.0005. Regarding WTGRCMSCCR (modifications not checked) [… (HPV16 E6, position 139)], the relative binding ratio (IC50 of standard peptide / IC50 of test peptide) (ratio to standard peptide) in assay [1] was found to be 0.0003.

Consider TAQEAKQHR (modifications not checked) [HPV16 E1 72 …], for which the binding affinity ratio (IC50 of standard peptide / IC50 of test peptide) in assay [1] was determined as 0.0005. For AMFQDPQER (modifications not checked) [HPV16 E6 position 7 peptide …], the binding affinity ratio (IC50 of the standard peptide / IC50 of the test peptide) in assay [1] (setting [5]) amounted to 0.017. CCRSSRTRR (modifications not checked) [HPV16 E6 position 146 peptide …]: the binding affinity ratio (IC50 of the standard peptide / IC50 of the test peptide) in assay [1] is 0.0003. As for HLDKKQRFH (modifications not checked) [… (HPV16 E6, position 125)], in assay [1] (setting [5]), the relative binding ratio (IC50 of standard peptide / IC50 of test peptide) (ratio to standard peptide) came to 0.0009.

For the molecule NIRGRWTGR (modifications not checked), the values for the binding affinity ratio (IC50 of standard peptide / IC50 of test peptide) in assay [2] and in assay [3] were 0.0014 and 0.0005, respectively.

With DIILECVYCK (modifications not checked), the binding affinity ratio (IC50 of standard peptide / IC50 of test peptide) in assay [2] was found to be 0.0065; in assay [3] it was 0.021. Turning to LILALLRYK (modifications not checked) [HPV18 E1 peptide … (position 281, 9 amino acids)], in assay [1], the relative binding ratio (A*0301) was determined as 0.27. With SVICFVNSK (modifications not checked) [HPV16 E1 497 …], the binding affinity ratio (IC50 of standard peptide / IC50 of test peptide) in assay [1] worked out at 0.0005.

AMFQDPQER (modifications not checked): the binding affinity ratio (IC50 of standard peptide / IC50 of test peptide) was 0.017 in assay [2] (setting [5]) and 0.032 in assay [3] (setting [5]). NIHPAKDNR (modifications not checked) [… (HPV18 E1, position 574, 9 amino acids)]: the binding affinity ratio (IC50 of standard peptide / IC50 of test peptide) in assay [1] came out at 0.0005. Turning to ISLNSGQKK (modifications not checked) [HPV18 E1 116 …], the binding affinity ratio (IC50 of standard peptide / IC50 of test peptide) in assay [1] turned out to be 0.0003.

Turning to AVCDKCLK (modifications not checked) [HPV16 E6 peptide AVCDKCLK], the binding affinity ratio (IC50 of standard peptide / IC50 of test peptide) was determined as 0.0053 in assay [2] and 0.011 in assay [3].

Take KLRHLNEKRR (modifications not checked) [HPV18 E6 peptide … (position 117, 10 amino acids)]: in assay [3], the relative binding ratio (IC50 of standard peptide / IC50 of test peptide) stood at 0.0001.

On to RFEDPTRRPY (modifications not checked) [HPV18 E6 peptide … (position 3, 10 amino acids)], for which, in assay [1], the relative binding ratio (IC50 of standard peptide / IC50 of test peptide) turned out to be 0.0002.

For TLLQQYCLYL (modifications not checked) [HPV16 E1 253 …], the relative binding ratio (IC50 of standard peptide / IC50 of test peptide) (ratio to standard peptide) in assay [4] was 0.65. For the molecule SCCRSSRTR (modifications not checked) [… (HPV16 E6, position 145)], the relative binding ratio (IC50 of standard peptide / IC50 of test peptide) (ratio to standard peptide) in assay [1] was determined as 0.0003.

Turning to LLIRCINCQK (modifications not checked), the binding affinity ratio (IC50 of standard peptide / IC50 of test peptide) was 0.021 in assay [2] and 0.18 in assay [3]. For AVCDKCLK (modifications not checked) [HPV16 E6 position 68 peptide AVCDKCLK], in assay [1], the binding affinity ratio (IC50 of the standard peptide / IC50 of the test peptide) amounted to 0.0053. As for EGTGCNGWFY (modifications not checked) [HPV31 E1 peptide … (position 10, 10 amino acids)], the binding affinity ratio (IC50 of standard peptide / IC50 of test peptide) (ratio relative to standard peptide) in assay [1] was found to be 0.0005. CVQSTHVDIR (modifications not checked): the binding affinity ratio (IC50 of standard peptide / IC50 of test peptide) in assay [2] turned out to be 0.0049; in assay [3], 0.0001. In the case of RLKAICIEK (modifications not checked) [HPV16 E1 109 …], the binding affinity ratio (IC50 of standard peptide / IC50 of test peptide) in assay [1] came to 0.084. For the molecule VCDKCLKFY (modifications not checked) [… (HPV16 E6, position 69)], in assay [1], the relative binding ratio (IC50 of standard peptide / IC50 of test peptide) (ratio to standard peptide) was found to be 0.0002. Consider RARQERLQR (modifications not checked) [HPV18 E6 peptide … (position 144, 9 amino acids)], for which, in assay [3], the relative binding ratio (IC50 of standard peptide / IC50 of test peptide) was determined as 0.0002. Consider CMCCKCEARIK (modifications not checked) [HPV18 E7 peptide … (position 63, 11 amino acids)], for which the figures for the relative binding ratio (IC50 of standard peptide / IC50 of test peptide) in assay [2] and in assay [3] were 0.0014 and 0.0002, respectively.

Turning to AGHYRGQCH (modifications not checked) [HPV18 E6 peptide … (position 131, 9 amino acids)], the relative binding ratio (IC50 of standard peptide / IC50 of test peptide) (ratio to standard peptide) in assay [1] was 0.0005.

As for EVYDFAFR (modifications not checked) [HPV16 E6 peptide EVYDFAFR], the results for the binding affinity ratio (IC50 of standard peptide / IC50 of test peptide) in assay [2] and in assay [3] were 0.0004 and 0.0025, respectively. For AVCDKCLKFY (modifications not checked), the binding affinity ratio (IC50 of the standard peptide / IC50 of the test peptide) in assay [1] turned out to be 0.0052. Take CVYCKQQLLR (modifications not checked): the results for the binding affinity ratio (IC50 of standard peptide / IC50 of test peptide) in assay [2] and in assay [3] were 0.0001 and 0.0005, respectively. In the case of IVYRDGNPY (modifications not checked) [… (HPV16 E6, position 59)], the relative binding ratio (IC50 of standard peptide / IC50 of test peptide) (ratio to standard peptide) in assay [1] (setting [5]) is 0.15. As for NIRGRWTGR (modifications not checked) [… (HPV16 E6, position 134)], in assay [1], the relative binding ratio (IC50 of standard peptide / IC50 of test peptide) (ratio to standard peptide) amounted to 0.0014. Take AFRDLCIVY (modifications not checked) [HPV16 E6 position 53 peptide …]: the binding affinity ratio (IC50 of the standard peptide / IC50 of the test peptide) in assay [1] turned out to be 0.0052. With GVLILALLR (modifications not checked) [HPV18 E1 279 …], the binding affinity ratio (IC50 of standard peptide / IC50 of test peptide) in assay [1] is 0.0058. PLCPEEKQR (modifications not checked) [… (HPV16 E6, position 116)]: in assay [1], the relative binding ratio (IC50 of standard peptide / IC50 of test peptide) (ratio to standard peptide) is 0.0002. As for KSFLKGTPK (modifications not checked) [HPV18 E1 peptide … (position 468, 9 amino acids)], the relative binding ratio (A*0301) in assay [1] amounted to 0.0003. As to ELRHYSDSVY (modifications not checked) [HPV18 E6 peptide … (position 77, 10 amino acids)], the relative binding ratio (IC50 of standard peptide / IC50 of test peptide) (ratio to standard peptide) in assay [1] was 0.0002. For EGTGCNGWF (modifications not checked) [HPV31 E1 peptide … (position 10, 9 amino acids)], in assay [1], the binding affinity ratio (IC50 of standard peptide / IC50 of test peptide) (ratio relative to standard peptide) was 0.0008. As to GTTLEQQYNK (modifications not checked), the binding affinity ratio (IC50 of standard peptide / IC50 of test peptide) amounted to 0.0002 in assay [2] and 0.07 in assay [3]. Take IILECVYCK (modifications not checked): the binding affinity ratio (IC50 of standard peptide / IC50 of test peptide) in assay [2] is 0.0016; in assay [3], 0.019. Turning to GIVCPICSQK (modifications not checked), the figures for the binding affinity ratio (IC50 of standard peptide / IC50 of test peptide) in assay [2] (setting [5]) and in assay [3] (setting [5]) were 0.0003 and 0.067, respectively. On to GDTPEWIQR (modifications not checked) [HPV18 E1 341 …], for which the binding affinity ratio (IC50 of standard peptide / IC50 of test peptide) in assay [1] stood at 0.0008.

Consider CMSCCRSSR (modifications not checked) [HPV16 E6 position 143 peptide …], for which, in assay [1], the binding affinity ratio (IC50 of the standard peptide / IC50 of the test peptide) stood at 0.0033. For the molecule NSGQKKAKR (modifications not checked) [… (HPV18 E1, position 119, 9 amino acids)], in assay [1], the binding affinity ratio (IC50 of standard peptide / IC50 of test peptide) was determined as 0.0005. As to AVCDKCLKF (modifications not checked), in assay [1], the binding affinity ratio (IC50 of the standard peptide / IC50 of the test peptide) was found to be 0.0002. Take TGRCMSCCR (modifications not checked) [… (HPV16 E6, position 140)]: the relative binding ratio (IC50 of standard peptide / IC50 of test peptide) (ratio to standard peptide) in assay [1] was determined as 0.0003.
